# Target: HDAC1 (histone deacetylase 1), wild-type (UniProt Q13547)
# Sequence (Q13547 whole entry): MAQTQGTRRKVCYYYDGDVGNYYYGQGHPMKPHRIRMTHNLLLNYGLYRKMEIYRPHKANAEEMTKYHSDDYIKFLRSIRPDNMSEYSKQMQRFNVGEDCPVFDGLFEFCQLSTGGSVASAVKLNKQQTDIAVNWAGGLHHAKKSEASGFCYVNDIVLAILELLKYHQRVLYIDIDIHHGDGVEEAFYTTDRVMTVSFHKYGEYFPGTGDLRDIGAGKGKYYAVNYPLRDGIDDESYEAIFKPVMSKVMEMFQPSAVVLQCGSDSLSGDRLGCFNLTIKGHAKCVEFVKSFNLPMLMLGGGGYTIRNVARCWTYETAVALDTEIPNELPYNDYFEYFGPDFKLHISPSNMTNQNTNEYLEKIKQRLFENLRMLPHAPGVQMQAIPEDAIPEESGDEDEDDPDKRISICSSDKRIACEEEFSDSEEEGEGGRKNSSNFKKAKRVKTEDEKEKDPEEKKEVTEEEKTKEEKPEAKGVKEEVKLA
substance,measurement,value
"SENP1 catalytically inactive mutant (R630L, K631M)",deacetylase activity of HDAC1 precipitates,expression of SENP1 mutant did not affect HDAC1's deacetylase activity

# From patent US20060057623
